T1: PSCA-glutathione S-transferase (GST) fusion protein (human) (UniProt O43653)
T1 sequence: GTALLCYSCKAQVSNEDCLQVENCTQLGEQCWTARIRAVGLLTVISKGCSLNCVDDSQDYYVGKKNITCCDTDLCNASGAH

T2: M (46-109)
T2 sequence (O43653 whole entry, species assumed, looked up): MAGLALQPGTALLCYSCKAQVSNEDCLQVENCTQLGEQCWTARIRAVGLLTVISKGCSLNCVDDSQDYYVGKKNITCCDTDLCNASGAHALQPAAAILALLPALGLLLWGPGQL

B1: anti-PSCA monoclonal antibody 1G8 (antibody, part only; not given: light chain, mouse IgG1, V domains shown, part only)
VH: CFFLMAVVIGVNSEVQLQQSGAELVRSGASVKLSCTASGFNIKDYYIHWVNQRPDQGLEWIGWIDPENGDTEFVPKFQGKATMTADIFSNTAYLHLSSLTSEDTAVYYCKTGGFWGQGTLVTVSAAKTTPPSVYPL
B2: anti-PSCA monoclonal antibody 2H9 (antibody, part only; not given: light chain, mouse IgG1, part only)
VH: NDFGLSWVFIIVLLKGVRSEVRLEESGGGWVQPGGSMKLSCVASGFTFSNYWMTWVRQSPEKGLEWVAEIRLRSENYATHYAESVKGKFTISRDDSRSRLYLQMNNLRPEDSGIYYCTDGLGRPNWGQGTLVTVSAAKTTPPSVYPLAPCV
B3: anti-PSCA monoclonal antibody 4A10 (antibody, part only; not given: light chain, mouse IgG2a, V domains shown, part only)
VH: LVATASDVHSQVQLQQPGSELVRPGTSVKLSCKASGYTFSSYWMHWVKQRPGQGLEWIGNIDPGSGYTNYAENLKTKATLTVDTSSSTAYMQLSSLTSEDSAVYYCTSRSTMITTGFAYWGQGTLVTVSAATTTAPSVYPLA

Legend:
Experiment in all cases: ELISA: GST-PSCA fusion protein 50 ng/well, hybridoma supernatant, anti-mouse-HRP, TMB; mean of duplicates
[1] = substrate: T3, C (85-123)
T3 sequence (O43653 whole entry, species assumed, looked up): T2 sequence (O43653 whole entry, species assumed, looked up)

[2] = substrate: T4, N (2-50)
T4 sequence (O43653 whole entry, species assumed, looked up): T2 sequence (O43653 whole entry, species assumed, looked up)

[3] = target: T1, PSCA-glutathione S-transferase (GST) fusion protein (human)
M (46-109) = target: T2, M (46-109)

Binder | OD 450 nm [1] | OD 450 nm [2] | OD 450 nm [3] | OD 450 nm (M (46-109))
B1 | 0.003 OD 450 nm | 0.004 OD 450 nm | 1.49 OD 450 nm | 1.27 OD 450 nm
B2 | 0.001 OD 450 nm | 1.03 OD 450 nm | 1.07 OD 450 nm | 0.002 OD 450 nm
B3 | 0.001 OD 450 nm | 0.493 OD 450 nm | 1.05 OD 450 nm | 
